For the experiment, the target named is T1, WT 4Ig-B7-H3-meGFP (and WT 4Ig-B7-H3-mCherry as the second copy) (human), Q5ZPR3.
T1 chain: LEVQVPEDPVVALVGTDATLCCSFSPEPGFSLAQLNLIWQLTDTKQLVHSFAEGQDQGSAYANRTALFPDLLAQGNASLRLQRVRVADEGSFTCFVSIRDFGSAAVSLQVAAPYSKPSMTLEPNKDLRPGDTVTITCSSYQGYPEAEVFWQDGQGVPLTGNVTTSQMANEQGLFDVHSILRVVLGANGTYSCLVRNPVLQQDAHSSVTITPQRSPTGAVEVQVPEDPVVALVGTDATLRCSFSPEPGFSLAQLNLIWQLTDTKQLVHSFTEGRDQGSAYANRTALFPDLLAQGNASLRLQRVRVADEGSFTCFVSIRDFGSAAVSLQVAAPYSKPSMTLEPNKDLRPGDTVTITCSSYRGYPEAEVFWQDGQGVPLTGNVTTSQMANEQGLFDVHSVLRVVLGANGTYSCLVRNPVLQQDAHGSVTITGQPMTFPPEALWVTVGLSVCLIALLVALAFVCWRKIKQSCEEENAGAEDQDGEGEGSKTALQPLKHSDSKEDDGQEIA
Kind of experiment: FRET or BRET. As to conditions: remark: other sources report otherwise. For orientation: BRET reads energy transfer from a luciferase to a nearby fluorophore.

B1: WT 4Ig-B7-H3-meGFP (and WT 4Ig-B7-H3-mCherry as the second copy), Q5ZPR3 29-534 (natural protein)
chain: LEVQVPEDPVVALVGTDATLCCSFSPEPGFSLAQLNLIWQLTDTKQLVHSFAEGQDQGSAYANRTALFPDLLAQGNASLRLQRVRVADEGSFTCFVSIRDFGSAAVSLQVAAPYSKPSMTLEPNKDLRPGDTVTITCSSYQGYPEAEVFWQDGQGVPLTGNVTTSQMANEQGLFDVHSILRVVLGANGTYSCLVRNPVLQQDAHSSVTITPQRSPTGAVEVQVPEDPVVALVGTDATLRCSFSPEPGFSLAQLNLIWQLTDTKQLVHSFTEGRDQGSAYANRTALFPDLLAQGNASLRLQRVRVADEGSFTCFVSIRDFGSAAVSLQVAAPYSKPSMTLEPNKDLRPGDTVTITCSSYRGYPEAEVFWQDGQGVPLTGNVTTSQMANEQGLFDVHSVLRVVLGANGTYSCLVRNPVLQQDAHGSVTITGQPMTFPPEALWVTVGLSVCLIALLVALAFVCWRKIKQSCEEENAGAEDQDGEGEGSKTALQPLKHSDSKEDDGQEIA
For the molecule B1, the abundance of dimeric complexes (1.3 ns lifetime population) was 65%; the dimeric abundance (with MBCD 0.1 ug, 10 minutes) was 26%; the dimeric abundance (without MBCD) is 48%; the dimeric lifetime abundance (with Vector-mCherry) was found to be 56%.

The values above are taken from PMC11702627.
